How the values were obtained:
[1] = biological target: T1, RAGE Fc chimera (Homo sapiens, UniProt Q15109); experiment: Far-Western dot blot: binding of RAGE to spotted proteins ± GM-0111; design: purchased R&D Systems Inc. (Minneapolis, MN); conditions: 1 μg spotted protein (0.5 μg Aβ1–42)
Description: (§1) All statistics were performed using Graph Pad Prism 6 (GraphPad Software, La Jolla, CA). Data are represented as mean± SEM of results. […] Two-way analysis of variances (ANOVAs) were performed with Dunnett’s multiple comparison tests. […] Kruskal-Wallis tests with Dunn’s multiple comparison tests were used to analyze binding by Far-Western dot blotting (see figure legends 3 and 6 for details on multiple comparison tests). […] To obtain dissociation constants (Kd), half-maximal inhibitory concentrations (IC50), and maximum absorbance values, BSA was subtracted as background and values were fitted to a curve of nonlinear regression.

[2] = biological target: T2, Aβ1–42 (Homo sapiens, UniProt P05067); experiment: Far-Western dot blot: binding of Aβ1–42 to spotted neutrophil proteins; conditions: Aβ1–42 […] (56 nM) with protease inhibitor cocktail; 1 μg spotted protein
T2 construct: Amyloid beta 1–42 (Aβ1–42), a known RAGE ligand; purchased Bachem (Torrance, CA)
Description: After spotting, membranes were rinsed with ultrapure water, and Ponceau S (Sigma Aldrich) was used to stain for spotted proteins. Ponceau S was rinsed off with ultrapure water, and membrane blots were blocked for 2 h at room temperature in PBST containing 3% BSA. […] Blots were washed three times with PBST for 10 min, and then incubated with either rabbit anti-RAGE primary antibody (0.8μg/ml) or mouse anti-APP/Aβ (0.25μg/ml) for 2 h at room temperature. Blots were washed three times with PBST for 10 min, and then incubated with donkey anti-rabbit or donkey anti-mouse secondary antibodies at 0.04μg/ml for 45 min at room temperature. Blots were washed three times with PBST. Enhanced chemiluminescent or SuperSignal West femto maximum sensitivity substrates (Pierce) were used to develop blots. Mean dot densities were quantified and normalized to ponceau S dot densities using Image J software (National Institutes of Health (NIH), Bethesda, MD).
Blots were incubated with rocking overnight at 4°C.
as §1

[3] = biological target: T2, Aβ1–42; experiment: ELISA: binding of Aβ1–42 to coated neutrophil proteins; conditions: for Log binding (Aβ1–42): 0.5 μg/well coated protein, with protease inhibitor cocktail, log OD 492 nm, mean ± SEM, n = 3; for maximum absorbance value for Aβ1–42 binding: ELISA with protease inhibitors, BSA subtracted, nonlinear regression fit
Description: (§2) The plates were washed three times with PBS containing 0.05% tween (PBST), and then blocked in PBST containing 3% bovine serum albumin (BSA). Indicated proteins were added to the plate in 50 μL PBST containing 0.1% BSA and incubated at 37°C for 70 mins. Wells were washed four times with PBST, and then incubated with 50 μL of goat anti-RAGE primary antibody (0.5 μg/ml) or mouse anti-APP/Aβ antibody (0.5 μg/ml-1 μg/ml) for 1 h. After washing the wells four times with PBST, 50 μL of rabbit anti-goat at 0.16 μg/ml or donkey anti-mouse at 0.04–0.08 μg/ml secondary antibodies were added for 1 h at room temperature.
as §1

[4] = biological target: T1, RAGE Fc chimera; experiment: ELISA: Aβ1–42 binding to RAGE after pre-incubation of Aβ1–42 with neutrophil proteins; design: purchased R&D Systems Inc. (RAGE Fc chimera); Bachem (Aβ1–42)
Description: as §2
In this set of experiments, the maxisorp plates were coated with RAGE Fc chimera (0.5 μg/well, 83.3 nM) overnight at 4°C.
as §1

[5] = biological target: T1, RAGE Fc chimera; experiment: ELISA: binding of RAGE to coated neutrophil proteins; design: purchased R&D Systems Inc. (Minneapolis, MN); conditions: for maximum absorbance value for RAGE binding: ELISA, BSA subtracted as background, nonlinear regression fit; for Log binding (RAGE): wells coated 0.5 μg/well protein, log-transformed OD 492 nm, mean ± SEM
Description: as §2
Goat anti-RAGE primary antibody at 0.5 μg/ml was used to detect bound RAGE.
as §1

[6] = biological target: T3, Aβ1–42 binding to RAGE (Homo sapiens, UniProt Q15109); experiment: ELISA: competitive inhibition of Aβ1–42 binding to RAGE by neutrophil proteins added simultaneously
T3 construct: purchased R&D Systems Inc. (RAGE Fc chimera); Bachem (Aβ1–42)
T3 sequence (Q15109 with tags, fused parts or gaps limits assumed): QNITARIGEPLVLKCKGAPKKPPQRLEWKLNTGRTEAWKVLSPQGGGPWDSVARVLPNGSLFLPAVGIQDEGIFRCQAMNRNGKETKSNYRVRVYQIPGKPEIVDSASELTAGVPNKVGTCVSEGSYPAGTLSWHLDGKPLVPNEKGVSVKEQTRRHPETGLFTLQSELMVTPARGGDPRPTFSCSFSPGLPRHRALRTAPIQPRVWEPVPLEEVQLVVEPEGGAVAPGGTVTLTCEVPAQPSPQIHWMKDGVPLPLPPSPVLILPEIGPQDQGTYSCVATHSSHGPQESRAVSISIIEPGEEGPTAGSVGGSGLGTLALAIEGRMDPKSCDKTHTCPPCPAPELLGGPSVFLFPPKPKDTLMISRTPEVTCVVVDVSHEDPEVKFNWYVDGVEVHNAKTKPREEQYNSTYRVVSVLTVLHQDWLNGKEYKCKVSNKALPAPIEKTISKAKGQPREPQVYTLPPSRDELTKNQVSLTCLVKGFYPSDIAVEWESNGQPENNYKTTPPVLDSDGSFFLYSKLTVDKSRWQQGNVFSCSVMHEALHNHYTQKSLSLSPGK
Description: as §2, §1

T1 sequence (Q15109 with tags, fused parts or gaps limits assumed): as above

| Substance | binding of RAGE (far-Western dot blot) [1] | binding of Aβ1–42 (far-Western dot blot) [2] | Log binding (Aβ1–42) ([3]; Aβ1–42 0 nM (background)) | Log binding (Aβ1–42) ([3]; Aβ1–42 3.47 nM) | Log binding (Aβ1–42) ([3]; Aβ1–42 13.89 nM) | Log binding (Aβ1–42) ([3]; Aβ1–42 27.78 nM) | Log binding (Aβ1–42) ([3]; Aβ1–42 55.56 nM) | Log binding (Aβ1–42) ([3]; Aβ1–42 […]) | maximum absorbance value for Aβ1–42 binding [3] | maximum absorbance value for Aβ1–42 binding to RAGE ([4]; Aβ1–42 pre-incubated with neutrophil elastase 2 μg/ml) [OD 492 nm] | Kd ([4]; read-out: KD value for Aβ1–42 binding to RAGE, Aβ1–42 pre-incubated overnight 4°C with neutrophil elastase 2 μg/ml (80 nM)) [nM] | maximum absorbance value for RAGE binding [5] | Log binding (RAGE) ([5]; RAGE 0 nM (background)) | Log binding (RAGE) ([5]; RAGE 0.83 nM) | Log binding (RAGE) ([5]; RAGE 1.67 nM) | Log binding (RAGE) ([5]; RAGE 3.33 nM) | IC50 ([6]; read-out: IC50 for inhibition of Aβ1–42 binding to RAGE, Aβ1–42 11 nM added simultaneously with the protein to RAGE-coated wells, absence of protease inhibitors) [nM] | inhibition of Aβ1–42 binding to RAGE in the presence of protease inhibitors ([6]; with protease inhibitor cocktail, Aβ1–42 11 nM) |
| --- | --- | --- | --- | --- | --- | --- | --- | --- | --- | --- | --- | --- | --- | --- | --- | --- | --- | --- |
| bovine serum albumin [BSA, reference compound] | did not detect visible binding | No binding | – | – | – | – | – | – | – | – | – | – | – | – | – | – | – | – |
| neutrophil elastase | did not detect visible binding | low binding | -1.061 | -0.961 | • -0.720±0.151 • p = 0.0064 | • -0.414±0.154 • p<0.0001 | • -0.146±0.153 • p<0.0001 | • -0.890±0.127 • p = 0.0064 | 5.89 | 0.15 | 131 | 1.11 | -0.756 | -0.376 | • -0.274±0.113 • p = 0.046 | • -0.121±0.104 • p = 0.003 | 4.85 | No inhibition |
| cathepsin G | not significantly higher than RAGE binding to BSA | strong binding | • -0.884±0.103 • p = 0.0004 | • -0.368±0.157 • p<0.0001 | • 0.019±0.165 • p<0.0001 | • 0.151±0.149 • p<0.0001 | • 0.310±0.125 • p<0.0001 | – | 3.54 | – | – | 2.14 | -0.426 | • 0.101±0.084 • p<0.0001 | • 0.166±0.092 • p<0.0001 | • 0.192±0.096 • p<0.0001 | – | – |

— PMC5038948, “The Role of Neutrophil Proteins on the Amyloid Beta-RAGE Axis” (PLoS ONE, 2016)
